The supplement of paper PMC10126150
± gives the standard deviation of the averaged measurements.

Tested on: ATP
Assay: switch fluorescence ratio, 500 uM ATP over buffer (Cy3 cluster intensity, sum of 5 cycles each) (fold (ratio)); higher = stronger signal-on switching upon ATP binding; sequences stand for … in TCGTCGGCAGCGTCAGATGTGTATAAGAGACAGTTTTTTTTTTTTTTTTTTTTTTTTT…TC
Details: aptamer strand: ATP DNA aptamer (quencher-CACCTGGGGGAGTATTGCGGAGGAAGG + anchor), 100 nM annealed; ATP concentration: 500 uM
Summary of the method: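 Cy3-labelled switching-strand clusters on a modified Illumina MiSeq flow-cell were annealed to 100 nM quencher-labelled ATP aptamer and imaged first in selection buffer, then after 15 min with 500 uM ATP at 22 °C. NaOH stripping and re-annealing separated each of five buffer/ATP cycles, and clusters outside 100-1000 RFU were excluded. The fluorescence ratio sums target-cycle Cy3 intensity over buffer-cycle Cy3 intensity per cluster and averages it per switch-domain sequence.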
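Note: ATP exposure 15 min at 22 °C before imaging.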

## TTTTTCGG
  switch fluorescence ratio: 0.996 ± 0.025

## TGACATCGGG
  switch fluorescence ratio: 1.01 ± 0.033

## CCAAGCTGAA
  switch fluorescence ratio: 1.22 ± 0.035

## TCGGATTTGT
  switch fluorescence ratio: 1.01 ± 0.041

## CAGGGGGGAC
  switch fluorescence ratio: 1 ± 0.022

## ATTGTTACGG
  switch fluorescence ratio: 0.998 ± 0.024

## TAACGGACGT
  switch fluorescence ratio: 1.01 ± 0.054

## AGAGTGTTTC
  switch fluorescence ratio: 0.943 ± 0.038

## GCTGGTGATC
  switch fluorescence ratio: 1.02 ± 0.012

## ATAGTTACGC
  switch fluorescence ratio: 1.03 ± 0.022

## ATCAGGGGGG
  switch fluorescence ratio: 1.02 ± 0.037

## TTGGTATGTG
  switch fluorescence ratio: 0.968 ± 0.017

## TGTGGCAGGT
  switch fluorescence ratio: 0.982 ± 0.031

## GAAGACCGGT
  switch fluorescence ratio: 0.985 ± 0.047

## AATGAGGGAA
  switch fluorescence ratio: 0.9986 ± 0.0011

## CGGAACCGGG
  switch fluorescence ratio: 1.03 ± 0.024

## GGTGAAAGCC
  switch fluorescence ratio: 0.98 ± 0.049

## ATAGTGGCGC
  switch fluorescence ratio: 0.997 ± 0.016

## TATTTTCTTT
  switch fluorescence ratio: 0.982 ± 0.021

## AAGGTTGATA
  switch fluorescence ratio: 0.988 ± 0.032

## TCTTTCATAT
  switch fluorescence ratio: 0.9392 ± 0.0062

## GAAGCTTGGG
  switch fluorescence ratio: 1.04 ± 0.025

## TTTATCGAGC
  switch fluorescence ratio: 1.02 ± 0.027

## CGGGGCACCA
  switch fluorescence ratio: 0.99 ± 0.032

## AAATTTTAAT
  switch fluorescence ratio: 0.979 ± 0.04

## GACTGTTGTC
  switch fluorescence ratio: 0.9972 ± 0.0059

## AACGTAGGGA
  switch fluorescence ratio: 1.93 ± 1.2

## GGAGTTTGTG
  switch fluorescence ratio: 0.989 ± 0.014

## TACTGTGTCT
  switch fluorescence ratio: 0.98144 ± 0.00053

## TTCCCGGGGT
  switch fluorescence ratio: 1.2 ± 0.32

## TGTGAGATTG
  switch fluorescence ratio: 1 ± 0.033

## GGAGTATGGG
  switch fluorescence ratio: 0.997 ± 0.029

## GTGATTCTTG
  switch fluorescence ratio: 0.9745 ± 0.0022

## GGTGTCAGGG
  switch fluorescence ratio: 0.989 ± 0.013

## TCATATGGTG
  switch fluorescence ratio: 1.03 ± 0.038

## GGGTTGATTT
  switch fluorescence ratio: 0.958 ± 0.053

## TTGAGGGGAA
  switch fluorescence ratio: 0.999 ± 0.025

## CGGTACGAGC
  switch fluorescence ratio: 0.992 ± 0.046

## GCCATCGAAT
  switch fluorescence ratio: 1 ± 0.021

## GATGGCGGTG
  switch fluorescence ratio: 0.995 ± 0.00091

## GGAGCAAGGG
  switch fluorescence ratio: 3.37 ± 1.5

## CGGAGAAGGG
  switch fluorescence ratio: 0.974 ± 0.029

## AGGGGGGCGA
  switch fluorescence ratio: 1.01 ± 0.029

## ACACTCTTGA
  switch fluorescence ratio: 1.03 ± 0.025

## ATGTGGCTCT
  switch fluorescence ratio: 0.9984 ± 0.0069

## TGGGGTTCGA
  switch fluorescence ratio: 0.975 ± 0.024

## GCCCTTTTAC
  switch fluorescence ratio: 1.19 ± 0.074

## TACTAATGTT
  switch fluorescence ratio: 1.03 ± 0.044

## TATTTTCTCA
  switch fluorescence ratio: 1.05 ± 0.049

## GTATTAGGAA
  switch fluorescence ratio: 0.985 ± 0.031

## GATCGGTAAA
  switch fluorescence ratio: 0.999 ± 0.013

## GTTTCCAGTT
  switch fluorescence ratio: 1.03 ± 0.023

## GGGTAGCGGG
  switch fluorescence ratio: 1.01 ± 0.033

## ATTGTGTCAC
  switch fluorescence ratio: 1 ± 0.028

## CGTAAAAGAC
  switch fluorescence ratio: 1.23 ± 0.19

## GAGGAAAGCA
  switch fluorescence ratio: 0.9815 ± 0.0056

## CTGGGGTAGT
  switch fluorescence ratio: 1.03 ± 0.022

## TAATTTGTGC
  switch fluorescence ratio: 1.01 ± 0.044

## ACATGATTGC
  switch fluorescence ratio: 1.029 ± 0.0054

## GTCCGGGTTT
  switch fluorescence ratio: 1.01 ± 0.036

## AGTTTCGGGA
  switch fluorescence ratio: 1 ± 0.033

## ATGGAGTGTG
  switch fluorescence ratio: 0.989 ± 0.02

## TGATTTGGCT
  switch fluorescence ratio: 1.02 ± 0.031

## ACCCTGCGAG
  switch fluorescence ratio: 1.05 ± 0.032

## CTTGTAGGGT
  switch fluorescence ratio: 1.01 ± 0.021

## AAGGGCCCTA
  switch fluorescence ratio: 0.9939 ± 0.0018

## GTTAGCATTG
  switch fluorescence ratio: 1 ± 0.029

## TGGTTAGTGG
  switch fluorescence ratio: 1 ± 0.02

## GAGATGGAAG
  switch fluorescence ratio: 0.993 ± 0.018

## TTTTAGCCAG
  switch fluorescence ratio: 1.01 ± 0.032

## CGAGCATTTT
  switch fluorescence ratio: 1.14 ± 0.017

## CGTATATGGC
  switch fluorescence ratio: 1.1 ± 0.14

## GGAGAGGCGT
  switch fluorescence ratio: 1 ± 0.013

## AATTAAGGGT
  switch fluorescence ratio: 0.9881 ± 0.0058

## ATTGGTCTGC
  switch fluorescence ratio: 1.02 ± 0.04

## TTTTTTCTAC
  switch fluorescence ratio: 1.31 ± 0.67

## GGTTAAAGGA
  switch fluorescence ratio: 0.95798 ± 0.00066

## CATGCTTTCC
  switch fluorescence ratio: 1.17 ± 0.26

## AGGGAGGTGC
  switch fluorescence ratio: 1.02 ± 0.051

## AAGTTTGGAT
  switch fluorescence ratio: 0.9919 ± 0.005

## GCGGGGGGAG
  switch fluorescence ratio: 1.02 ± 0.043

## GAGCCTTACT
  switch fluorescence ratio: 1.38 ± 0.26

## AGGGGGGTCA
  switch fluorescence ratio: 0.976 ± 0.032

## CACTAGTTTT
  switch fluorescence ratio: 1.01 ± 0.012

## TGTAAAGGAA
  switch fluorescence ratio: 0.992 ± 0.024

## TTGGAGTGGT
  switch fluorescence ratio: 1.03 ± 0.013

## TTTGTGGGGA
  switch fluorescence ratio: 1 ± 0.026

## TGTTGTGTAG
  switch fluorescence ratio: 0.977 ± 0.021

## TTATGAGCAA
  switch fluorescence ratio: 1.8 ± 0.096

## CGAAATACGG
  switch fluorescence ratio: 2.83 ± 0.18

## GGCTATGGGT
  switch fluorescence ratio: 1.02 ± 0.024

## CAATTTGTGT
  switch fluorescence ratio: 0.983 ± 0.012

## AGGTTATATT
  switch fluorescence ratio: 1.01 ± 0.024

## GCTGTGTTTT
  switch fluorescence ratio: 1 ± 0.034

## TCTGTGTTAT
  switch fluorescence ratio: 1 ± 0.026

## GAAGAATTGT
  switch fluorescence ratio: 0.991 ± 0.038

## TTGGTTTTAA
  switch fluorescence ratio: 1.03 ± 0.014

## CGCGTTCATT
  switch fluorescence ratio: 0.972 ± 0.038

## TAAGGGCGGC
  switch fluorescence ratio: 0.995 ± 0.043

## GAGGATGGCA
  switch fluorescence ratio: 0.9807 ± 0.0061

## TTTTGATTGT
  switch fluorescence ratio: 1.01 ± 0.055

## GGCGTCAAGG
  switch fluorescence ratio: 0.996 ± 0.026

## AACGCCTTCG
  switch fluorescence ratio: 1.177 ± 0.011

## ACACCCCCGT
  switch fluorescence ratio: 1.67 ± 0.19

## TGCCGGGAAA
  switch fluorescence ratio: 1.01 ± 0.0084

## AACCTCCGTT
  switch fluorescence ratio: 1.71 ± 0.064

## TAATTCAGGG
  switch fluorescence ratio: 1.03 ± 0.032

## TTAGGGTAGG
  switch fluorescence ratio: 0.97 ± 0.039

## TGGGAATCAC
  switch fluorescence ratio: 1.05 ± 0.017

## GAAGGGGTGT
  switch fluorescence ratio: 1.01 ± 0.031

## GACTAAAGTA
  switch fluorescence ratio: 1.05 ± 0.074

## CGGTATACTG
  switch fluorescence ratio: 1.04 ± 0.049

## GTTAGAGTCA
  switch fluorescence ratio: 1.01 ± 0.013

## CGTCGTATAA
  switch fluorescence ratio: 1.02 ± 0.021

## CGGTCAGTTT
  switch fluorescence ratio: 1.025 ± 0.0089

## GTCACACTT
  switch fluorescence ratio: 1.01 ± 0.0073

## AGTTGGCAAT
  switch fluorescence ratio: 1.24 ± 0.061

## AATCCCTTTT
  switch fluorescence ratio: 1 ± 0.031

## AAGCCCGCAC
  switch fluorescence ratio: 1.879 ± 0.0067

## TTTGGGCACT
  switch fluorescence ratio: 0.996 ± 0.024

## TTAGCTGTGC
  switch fluorescence ratio: 1.02 ± 0.067

## CGGGGCTATG
  switch fluorescence ratio: 0.997 ± 0.0053

## TGCATGTCGC
  switch fluorescence ratio: 0.991 ± 0.025

## CGAAGGGCTA
  switch fluorescence ratio: 1.15 ± 0.19

## TTGTTTTATC
  switch fluorescence ratio: 1 ± 0.021

## TAGTTAGACG
  switch fluorescence ratio: 1.11 ± 0.1

## TGTTGGAGGA
  switch fluorescence ratio: 0.994 ± 0.028

## GAACGAAGCA
  switch fluorescence ratio: 1.84 ± 0.051

## GCCTTGAAGT
  switch fluorescence ratio: 1 ± 0.013

## AGCTTTTCTT
  switch fluorescence ratio: 1.03 ± 0.017

## ATTAGAATTA
  switch fluorescence ratio: 0.982 ± 0.062

## GCCCTTGTCA
  switch fluorescence ratio: 1.01 ± 0.019

## CACTTGGAGC
  switch fluorescence ratio: 0.944 ± 0.059

## TAGTTGGGCA
  switch fluorescence ratio: 0.987 ± 0.026

## GCTTTGGTGA
  switch fluorescence ratio: 0.991 ± 0.019

## GGTAGAGGTT
  switch fluorescence ratio: 0.985 ± 0.019

## TGGGGGGATC
  switch fluorescence ratio: 1.009 ± 0.0082

## TTTTAAAAGG
  switch fluorescence ratio: 0.99 ± 0.037

## GGATATCTGG
  switch fluorescence ratio: 1.014 ± 0.0053

## ACATGATCTC
  switch fluorescence ratio: 0.993 ± 0.021

## GAATTTGGGA
  switch fluorescence ratio: 0.997 ± 0.013

## TAAAGAACCA
  switch fluorescence ratio: 1.016 ± 0.0053

## TATAGAGTAA
  switch fluorescence ratio: 1.02 ± 0.034

## TAGGAGGGGC
  switch fluorescence ratio: 0.958 ± 0.12

## GGTACAGAGC
  switch fluorescence ratio: 1 ± 0.064

## GATAGTGAGG
  switch fluorescence ratio: 0.9935 ± 0.0021

## TTTTTGGTCT
  switch fluorescence ratio: 0.997 ± 0.027

## TTCAGCAAT
  switch fluorescence ratio: 5.31 ± 0.8

## TAGGTCGGCC
  switch fluorescence ratio: 1.004 ± 0.0061

## ACGGGGTTTG
  switch fluorescence ratio: 0.995 ± 0.018

## CGGGTCGGGG
  switch fluorescence ratio: 0.998 ± 0.025

## TAACGTGGGA
  switch fluorescence ratio: 0.996 ± 0.058

## GGGAGGTGTT
  switch fluorescence ratio: 1.037 ± 0.009

## CGGGGTTGAA
  switch fluorescence ratio: 0.998 ± 0.03

## CGGGCATATA
  switch fluorescence ratio: 1.1969 ± 8.5e-05

## TAAGTCCCGG
  switch fluorescence ratio: 0.984 ± 0.05

## GTTTCGTCCA
  switch fluorescence ratio: 2.1 ± 1.6
